{
  "source": "patent US20170342349A1",
  "about": "“STABILIZED ENZYME COMPOSITIONS” (NOVOZYMES A/S, priority 2014, published 2017)",
  "key": {"[1]": {"biological_target": "TY145 (SEQ ID NO 3) variant I150L + S173P + S175P", "sequence (chain, as listed by the source I150L S173P S175P I150L S173P S175P limits assumed)": "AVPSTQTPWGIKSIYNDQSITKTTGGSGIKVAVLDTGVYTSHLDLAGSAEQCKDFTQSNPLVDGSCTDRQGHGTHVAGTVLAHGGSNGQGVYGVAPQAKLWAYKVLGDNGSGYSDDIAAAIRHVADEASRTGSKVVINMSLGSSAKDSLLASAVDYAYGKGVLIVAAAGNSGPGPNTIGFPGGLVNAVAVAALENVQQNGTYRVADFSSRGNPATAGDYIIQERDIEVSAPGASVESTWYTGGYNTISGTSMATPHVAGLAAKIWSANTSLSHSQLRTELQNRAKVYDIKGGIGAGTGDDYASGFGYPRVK", "experiment": "Ki fitted from Suc-AAPF-pNA activity in Model B detergent; IF relative to SEQ ID NO 3 comprising S173P + S175P"}, "[2]": {"biological_target": "TY145 (SEQ ID NO 3) variant Q70N + S173P + S175P", "sequence (chain, as listed by the source Q70N S173P S175P Q70N S173P S175P limits assumed)": "as the sequence (chain, as listed by the source I150L S173P S175P I150L S173P S175P limits assumed) above, with Q70N, L150I counted along it", "experiment": "Ki fitted from Suc-AAPF-pNA activity in Model B detergent; IF relative to SEQ ID NO 3 comprising S173P + S175P"}, "[3]": {"biological_target": "TY145 (SEQ ID NO 3) variant S114V + I150L + S173P + S175P", "sequence (chain, as listed by the source S114V I150L S173P S175P S114V I150L S173P S175P limits assumed)": "as the sequence (chain, as listed by the source I150L S173P S175P I150L S173P S175P limits assumed) above, with S114V counted along it", "experiment": "Ki fitted from Suc-AAPF-pNA activity in Model B detergent; IF relative to SEQ ID NO 3 comprising S173P + S175P"}, "[4]": {"biological_target": "TY145 (SEQ ID NO 3) variant S114V + S173P + S175P", "sequence (chain, as listed by the source S114V S173P S175P S114V S173P S175P limits assumed)": "as the sequence (chain, as listed by the source I150L S173P S175P I150L S173P S175P limits assumed) above, with S114V, L150I counted along it", "experiment": "Ki fitted from Suc-AAPF-pNA activity in Model B detergent; IF relative to SEQ ID NO 3 comprising S173P + S175P"}, "[5]": {"biological_target": "Protease P (SEQ ID NO 5) variant M103A", "experiment": "Ki fitted from Suc-AAPF-pNA activity in Model B detergent; IF relative to SEQ ID NO 5"}, "[6]": {"biological_target": "Protease P (SEQ ID NO 5) variant M103S", "experiment": "Ki fitted from Suc-AAPF-pNA activity in Model B detergent; IF relative to SEQ ID NO 5"}, "[7]": {"biological_target": "Protease P (SEQ ID NO 5) variant G128P", "experiment": "Ki fitted from Suc-AAPF-pNA activity in Model B detergent; IF relative to SEQ ID NO 5"}, "[8]": {"biological_target": "Protease P (SEQ ID NO 5) variant Q64N", "experiment": "Ki fitted from Suc-AAPF-pNA activity in Model B detergent; IF relative to SEQ ID NO 5"}, "[9]": {"biological_target": "Protease P (SEQ ID NO 5) variant G127S + G128P + G129S + Y130P + D131S + M134L", "experiment": "Ki fitted from Suc-AAPF-pNA activity in Model B detergent; IF relative to SEQ ID NO 5"}, "[10]": {"biological_target": "Protease P (SEQ ID NO 5) variant Q64F", "experiment": "Ki fitted from Suc-AAPF-pNA activity in Model B detergent; IF relative to SEQ ID NO 5"}, "[11]": {"biological_target": "TY145 (SEQ ID NO 3) variant Q70A", "sequence (chain, as listed by the source limits assumed)": "as the sequence (chain, as listed by the source I150L S173P S175P I150L S173P S175P limits assumed) above, with L150I, P173S, P175S counted along it", "experiment": "Ki fitted from Suc-AAPF-pNA activity at 8 inhibitor concentrations in Model B detergent; IF relative to SEQ ID NO 3"}, "[12]": {"biological_target": "TY145 (SEQ ID NO 3) variant S114A", "experiment": "Ki fitted from Suc-AAPF-pNA activity at 8 inhibitor concentrations in Model B detergent; IF relative to SEQ ID NO 3"}, "[13]": {"biological_target": "TY145 (SEQ ID NO 3) variant S111R", "experiment": "Ki fitted from Suc-AAPF-pNA activity at 8 inhibitor concentrations in Model B detergent; IF relative to SEQ ID NO 3"}, "[14]": {"biological_target": "TY145 (SEQ ID NO 3) variant L184Y", "sequence (chain, as listed by the source L184Y L184Y limits assumed)": "as the sequence (chain, as listed by the source I150L S173P S175P I150L S173P S175P limits assumed) above, with L150I, P173S, P175S, L184Y counted along it", "experiment": "Ki fitted from Suc-AAPF-pNA activity at 8 inhibitor concentrations in Model B detergent; IF relative to SEQ ID NO 3"}, "[15]": {"biological_target": "TY145 (SEQ ID NO 3) variant Y240R", "experiment": "Ki fitted from Suc-AAPF-pNA activity at 8 inhibitor concentrations in Model B detergent; IF relative to SEQ ID NO 3"}, "[16]": {"biological_target": "TY145 (SEQ ID NO 3) variant I150S", "sequence (chain, as listed by the source I150S I150S limits assumed)": "as the sequence (chain, as listed by the source I150L S173P S175P I150L S173P S175P limits assumed) above, with L150S, P173S, P175S counted along it", "experiment": "Ki fitted from Suc-AAPF-pNA activity at 8 inhibitor concentrations in Model B detergent; IF relative to SEQ ID NO 3"}, "[17]": {"biological_target": "TY145 (SEQ ID NO 3) variant Q70N", "experiment": "Ki fitted from Suc-AAPF-pNA activity at 8 inhibitor concentrations in Model B detergent; IF relative to SEQ ID NO 3"}, "[18]": {"biological_target": "TY145 (SEQ ID NO 3) variant G182A", "sequence (chain, as listed by the source G182A G182A limits assumed)": "as the sequence (chain, as listed by the source I150L S173P S175P I150L S173P S175P limits assumed) above, with L150I, P173S, P175S, G182A counted along it", "experiment": "Ki fitted from Suc-AAPF-pNA activity at 8 inhibitor concentrations in Model B detergent; IF relative to SEQ ID NO 3"}, "[19]": {"biological_target": "TY145 (SEQ ID NO 3) variant I150N", "experiment": "Ki fitted from Suc-AAPF-pNA activity at 8 inhibitor concentrations in Model B detergent; IF relative to SEQ ID NO 3"}, "[20]": {"biological_target": "TY145 (SEQ ID NO 3) variant L184F", "sequence (chain, as listed by the source L184F L184F limits assumed)": "as the sequence (chain, as listed by the source I150L S173P S175P I150L S173P S175P limits assumed) above, with L150I, P173S, P175S, L184F counted along it", "experiment": "Ki fitted from Suc-AAPF-pNA activity at 8 inhibitor concentrations in Model B detergent; IF relative to SEQ ID NO 3"}, "[21]": {"biological_target": "TY145 (SEQ ID NO 3) variant Q70F", "experiment": "Ki fitted from Suc-AAPF-pNA activity at 8 inhibitor concentrations in Model B detergent; IF relative to SEQ ID NO 3"}, "[22]": {"biological_target": "Protease C (SEQ ID NO 6) (Lederbergia lenta (Bacillus lentus)) (UniProt P29600)", "experiment": "Ki fitted from Suc-AAPF-pNA activity in Model B detergent; IF relative to SEQ ID NO 6 (the reference itself)"}, "TY145 (SEQ ID NO 3)": {"biological_target": "TY145 (SEQ ID NO 3)", "experiment": "Ki fitted from Suc-AAPF-pNA activity at 8 inhibitor concentrations in Model B detergent; IF relative to SEQ ID NO 3 (the reference itself)"}, "[23]": {"biological_target": "TY145 (SEQ ID NO 3) variant S173P + S175P", "sequence (chain, as listed by the source S173P S175P S173P S175P limits assumed)": "as the sequence (chain, as listed by the source I150L S173P S175P I150L S173P S175P limits assumed) above, with L150I counted along it", "experiment": "Ki fitted from Suc-AAPF-pNA activity in Model B detergent; IF relative to SEQ ID NO 3 comprising S173P + S175P (the reference itself)"}},
  "data": [
    {"substance": "Inhibitor 1: Cbz-Gly-Ala-NHCH(CH2C6H4pOH)C(OH)(SO3Na)-H (peptide)", "values": [
      {"measurement": "IF (binding constant improvement factor, relative Ki)", "setting": "[1]", "value": 2.05},
      {"measurement": "IF (binding constant improvement factor, relative Ki)", "setting": "[2]", "value": 4.48},
      {"measurement": "IF (binding constant improvement factor, relative Ki)", "setting": "[3]", "value": 6.14},
      {"measurement": "IF (binding constant improvement factor, relative Ki)", "setting": "[4]", "value": 1.83},
      {"measurement": "IF (binding constant improvement factor, relative Ki)", "setting": "[5]", "value": 2.31},
      {"measurement": "IF (binding constant improvement factor, relative Ki)", "setting": "[6]", "value": 1.73},
      {"measurement": "IF (binding constant improvement factor, relative Ki)", "setting": "[7]", "value": 1.19},
      {"measurement": "IF (binding constant improvement factor, relative Ki)", "setting": "[8]", "value": 1.38},
      {"measurement": "IF (binding constant improvement factor, relative Ki)", "setting": "[9]", "value": 1.05},
      {"measurement": "IF (binding constant improvement factor, relative Ki)", "setting": "[10]", "value": 3.44},
      {"measurement": "IF (binding constant improvement factor, relative Ki)", "setting": "[11]", "value": 2.54},
      {"measurement": "IF (binding constant improvement factor, relative Ki)", "setting": "[12]", "value": 2.14},
      {"measurement": "IF (binding constant improvement factor, relative Ki)", "setting": "[13]", "value": 1.11},
      {"measurement": "IF (binding constant improvement factor, relative Ki)", "setting": "[14]", "value": 4.47},
      {"measurement": "IF (binding constant improvement factor, relative Ki)", "setting": "[15]", "value": 1.19},
      {"measurement": "IF (binding constant improvement factor, relative Ki)", "setting": "[16]", "value": 4.94},
      {"measurement": "IF (binding constant improvement factor, relative Ki)", "setting": "[17]", "value": 3.33},
      {"measurement": "IF (binding constant improvement factor, relative Ki)", "setting": "[18]", "value": 1.86},
      {"measurement": "IF (binding constant improvement factor, relative Ki)", "setting": "[19]", "value": 3.68},
      {"measurement": "IF (binding constant improvement factor, relative Ki)", "setting": "[20]", "value": 2.27},
      {"measurement": "IF (binding constant improvement factor, relative Ki)", "setting": "[21]", "value": 8.53},
      {"measurement": "IF (binding constant improvement factor, relative Ki)", "setting": "[22]", "value": 1},
      {"measurement": "IF (binding constant improvement factor, relative Ki)", "setting": "TY145 (SEQ ID NO 3)", "value": 1},
      {"measurement": "IF (binding constant improvement factor, relative Ki)", "setting": "[23]", "value": 1}
    ]}
  ]
}
